Numbering of substitutions follows the chain as printed.
B1: Molecule 33 (ICOS H1138_1) (antibody, human IgG1, kappa, L234A L235A, V domains shown)
VH: EVQLLESGGGLVQPGGSLRLSCAASGFDLSSYYYMSWVRQAPGKGLEWVSSIYADIYGGTTHYASWAKGRFTISKTSSKTTLYLQMNSLRAEDTAVYFCAREDGSRYGGSGYYNLWGQGTLVTVSS
VL: DIQMTQSPSSLSASVGDRVTITCRASQNIYSNLAWYQQKPGQPPKLLIYAASYLTSGVPSRFSGSGSGTDFTLTISSLQPEDFATYYCQQGHTTDNIDNAFGGGTKVEIKR
notes: Human IgG format
B2: Molecule 35 (ICOS H1138_3) (antibody, human IgG1, kappa, L234A L235A, V domains shown)
VH: EVQLLESGGGLVQPGGSLRLSCAASGFDLSSYYYMSWVRQAPGKGLEWVSSIYADIYGGTTHYASWAKGRFTISKTSSTTLYLQMNSLRAEDTAVYFCAREDGSRYGGSGYYNLWGQGTLVTVSS
VL: B1 VL with D1A, Q42K, P59S
notes: Human IgG format
B3: Molecule 34 (ICOS H1138_2) (antibody, human IgG1, kappa, L234A L235A, V domains shown)
VH: B1 VH with K75R, T76D, S77N, T80N
VL: B1 VL with D1A, Q42K, P59S
notes: Human IgG format
B4: Molecule 27 (ICOS H009v1_3) (antibody, human IgG1, kappa, L234A L235A, V domains shown)
VH: EVQLVESGGGLVQPGRSLRLSCTASGFTFSDYWMNWVRQAPGKGLEWVAQIRNKPYNYETYYAASVKGRFTISRDDSKSIAYLQMNSLKTEDTAVYYCTWPRLRSSDWHFDVWGKGTTVTVSS
VL: DIQMTQSPSSLSASVGDRVTITCQASQDINKNIAWYQQKPGKAPKLLIWYTSTLQTGVPSRFSGSGSGTDFTFTISSLQPEDIATYYCLQFDNLYTFGQGTKLEIKR
notes: Human IgG format
B5: Molecule 1 (JMab136 IgG) (antibody, V domains shown)
VH: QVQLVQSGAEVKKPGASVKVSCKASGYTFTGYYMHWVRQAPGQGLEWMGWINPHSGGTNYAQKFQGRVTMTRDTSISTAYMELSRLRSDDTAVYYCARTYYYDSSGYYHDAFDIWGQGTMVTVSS
VL: DIQMTQSPSSVSASVGDRVTITCRASQGISRLLAWYQQKPGKAPKLLIYVASSLQSGVPSRFSGSGSGTDFTLTISSLQPEDFATYYCQQANSFPWTFGQGTKVEIK
notes: IgG
B6: Molecule 29 (ICOS H1143v2_1) (antibody, human IgG1, kappa, L234A L235A, V domains shown)
VH: EVQLLESGGGLVQPGGSLRLSCAASGFDFSSAYDMSWVRQAPGKGLEWVSVIYYGDGITYYADSVKGRFTISRDNSKNTLYLQMNSLRAEDTAVYFCARGAFLGSSYYLSLWGQGTLVTVSS
VL: DIQMTQSPSSLSASVGDRVTITCRASENIYNWLAWYQQKPGKAPKLLIYDASKLASGVPSRFSGSGSGTDFTLTISSLQPEDFATYYCQQAYTYGNIDNAFGGGTKVEIKR
notes: Human IgG format
B7: Molecule 31 (ICOS H1143v2_3) (antibody, human IgG1, kappa, L234A L235A, V domains shown)
VH: EVQLLESGGGLVQPGGSLRLSCAASGFDFSSAYDMSWVRQAPGKGLEWIGVIYYGDGITYYADSVKGRFTISRDNSNTLYLQMNSLRAEDTAVYFCARGAFLGSSYYLSLWGQGTLVTVSS
VL: B6 VL
notes: Human IgG format
B8: Molecule 30 (ICOS H1143v2_2) (antibody, human IgG1, kappa, L234A L235A, V domains shown)
VH: B6 VH with R73K, D74T, N75S, N78T
VL: B6 VL
notes: Human IgG format
B9: Molecule 28 (ICOS 1143v2) (antibody, human IgG1, kappa, L234A L235A, V domains shown)
VH: QSLEESGGDLVKPGASLTLTCKASGFDFSSAYDMSWVRQAPGKGLEWIGVIYYGDGITYYATSVKGRFTISKTSSTTVPLQMTSLTAADTATYFCARGAFLGSSYYLSLWGQGTLVTVSS
VL: AIDMTQTPASVEAAVGGTVTINCQASENIYNWLAWYQQKPGQPPKLLIYDASKLASGVPSRFSASGSGTQFTLTISAVESADAATYYCQQAYTYGNIDNAFGGGTEVVVSR
notes: Human IgG format; also called parent antibody of Molecules 29-31
B10: Molecule 21, bispecific 2+1 anti-ICOS (1143v1)/anti-FAP (4B9) huIgG1 P329GLALA kih (bispecific antibody)
heavy 1: QSLEESGGDLVKPGASLTLTCKASGFDFSSAYDMSWVRQAPGKGLEWIGVVYYGDGITYYATWAKGRFTISKTSSTTVPLQMTSLTAADTATYFCARGAFLGSSYYLSLWGQGTLVTVSSASTKGPSVFPLAPSSKSTSGGTAALGCLVKDYFPEPVTVSWNSGALTSGVHTFPAVLQSSGLYSLSSVVTVPSSSLGTQTYICNVNHKPSNTKVDKKVEPKSCDKTHTCPPCPAPEAAGGPSVFLFPPKPKDTLMISRTPEVTCVVVDVSHEDPEVKFNWYVDGVEVHNAKTKPREEQYNSTYRVVSVLTVLHQDWLNGKEYKCKVSNKALGAPIEKTISKAKGQPREPQVCTLPPSRDELTKNQVSLSCAVKGFYPSDIAVEWESNGQPENNYKTTPPVLDSDGSFFLVSKLTVDKSRWQQGNVFSCSVMHEALHNHYTQKSLSLSPGGGGGSGGGGSGGGGSGGGGSEIVLTQSPGTLSLSPGERATLSCRASQSVTSSYLAWYQQKPGQAPRLLINVGSRRATGIPDRFSGSGSGTDFTLTISRLEPEDFAVYYCQQGIMLPPTFGQGTKVEIK
heavy 2: not shown
light: AIDMTQTPASVEAAVGGTVTINCQASENIYNWLAWYQQKPGQPPKLLIYDASKLASGVPSRFSASGSGTQFTLTISAVESADAATYYCQQAYTYGNIDNAFGGGTEVVVSRTVAAPSVFIFPPSDEQLKSGTASVVCLLNNFYPREAKVQWKVDNALQSGNSQESVTEQDSKDSTYSLSSTLTLSKADYEKHKVYACEVTHQGLSSPVTKSFNRGEC
B11: Molecule 44, bispecific 2+1 anti-ICOS (1143)/anti-FAP (4B9) huIgG1 P329GLALA kih (bispecific antibody)
heavy 1: B10 heavy 1 with V50S
heavy 2: not shown
light: B10 light
B12: Molecule 32 (ICOS 1138) (antibody, human IgG1, kappa, L234A L235A, V domains shown)
VH: QSLEESGGDLVKPGASLTLTCTASGFDLSSYYYMSWVRQAPGKGLEWIASIYADIYGGTTHYASWAKGRFTISKTSSTTVTLQMTSLTAADTATYFCAREDGSRYGGSGYYNLWGPGTLVTVSS
VL: ALVMTQTPSSVSAAVGGTVTINCQASQNIYSNLAWYQQKPGQPPKLLIYAASYLTSGVSSRFKGSGAGTQFTLTISGVESADAATYYCQQGHTTDNIDNAFGGGTEVVVKR
notes: Human IgG format; also called parental antibody of Molecules 33-35

How the values were obtained:
human ICOS [1] = biological target: T1, human ICOS (human, UniProt Q9Y6W8 21-199); experiment: flow cytometry, CHO cells expressing human ICOS
T1 construct: The cell that carries it is named under assay; also called huICOS; CD278
T1 sequence: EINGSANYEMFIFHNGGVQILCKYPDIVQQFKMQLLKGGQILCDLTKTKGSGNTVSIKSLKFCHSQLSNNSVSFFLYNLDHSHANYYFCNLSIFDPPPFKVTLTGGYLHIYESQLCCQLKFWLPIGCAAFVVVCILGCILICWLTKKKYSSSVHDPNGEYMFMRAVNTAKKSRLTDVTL

human ICOS [2] = biological target: T1, human ICOS; experiment: flow cytometry on CHO cells expressing human ICOS, PE-labelled secondary antibody; y axis printed LOG10(MFI PE)
human ICOS [3] = biological target: T1, human ICOS; experiment: cell-based or functional assay
human ICOS [4] = biological target: T1, human ICOS; experiment: flow cytometry on CHO cells stably expressing human ICOS, PE-labelled secondary antibody, median fluorescence intensity (MFI)
Protocol: (§1) Briefly, suspension cells were harvested, counted, checked for viability and re-suspended at 1 million cells per ml in FACS buffer (PBS with 0.1% BSA). […] The staining was fixed for 20 min at 4° C. in the dark, using 75 μl of 1% PFA in FACS buffer per well.
(§2) Fluorescence was analyzed by FACS using a FACS Fortessa (Software FACS Diva). Binding curves and EC50 values were obtained using GraphPadPrism 7.

human ICOS [5] = biological target: T1, human ICOS; experiment: flow cytometry, CHO cells expressing human ICOS; remark: listed apart in the source
Protocol: as §1, §2

human ICOS [6] = biological target: T1, human ICOS; experiment: flow cytometry on CHO cells expressing human ICOS, PE-labelled secondary antibody; y axis printed LOG10(MFI PE); remark: listed apart in the source
human ICOS [7] = biological target: T1, human ICOS; experiment: flow cytometry on SR cells expressing human ICOS, geometric MFI
human ICOS [8] = biological target: T1, human ICOS; experiment: flow cytometry, SR cells
human FAP = biological target: T2, human FAP (human, UniProt Q12884 1-760); experiment: flow cytometry, NIH/3T3-huFAP clone 19 cells
T2 construct: also called hu FAP

| Binder | EC50 (human ICOS [1]) | Max (Log10(MFI)) (human ICOS [1]) | EC50 (read off the curve) (human ICOS [2]) | EC50 of activation of Jurkat-NFAT reporter cell line (human ICOS [3]) | Max (Counts/sec), Jurkat-NFAT reporter cell line (human ICOS [3]) | EC50 (read off the curve) (human ICOS [4]) | EC50 (human ICOS [5]) | EC50 (read off the curve) (human ICOS [6]) | EC50 (read off the curve) (human ICOS [7]) | EC50 (human ICOS [8]) | EC50 (human FAP) |
| --- | --- | --- | --- | --- | --- | --- | --- | --- | --- | --- | --- |
| B1 | 7.58 nM | 3.89 Log10(MFI) | ~8 nM | 41.4 nM | 41400 Counts/sec | – | – | – | – | – | – |
| B2 | 2.72 nM | 4.55 Log10(MFI) | ~3 nM | 99.4 nM | 59500 Counts/sec | – | – | – | – | – | – |
| B3 | 10.2 nM | 1.91 Log10(MFI) | ~10 nM | 34 nM | 38400 Counts/sec | – | – | – | – | – | – |
| B4 | 2.7 nM | 6.85 Log10(MFI) | – | ~7.99 nM | 47400 Counts/sec | – | – | – | – | – | – |
| B5 | – | – | – | – | – | ~2 nM | 0.0023 nM | – | – | – | – |
| B6 | 5.2 nM | 2.38 Log10(MFI) | – | 27.6 nM | 63800 Counts/sec | – | – | ~6 nM | – | – | – |
| B7 | 1.75 nM | 4.44 Log10(MFI) | – | 23.2 nM | 52000 Counts/sec | – | – | ~2 nM | – | – | – |
| B8 | 2.25 nM | 2.75 Log10(MFI) | – | 29.4 nM | 55300 Counts/sec | – | – | ~2 nM | – | – | – |
| B9 | 2.56 nM | 4.88 Log10(MFI) | – | 28 nM | 52300 Counts/sec | – | – | ~3 nM | – | – | – |
| B10 | – | – | – | – | – | – | – | – | ~0.5 nM | 0.00057 nM | 0.00501 nM |
| B11 | – | – | – | – | – | – | – | – | ~2 nM | 0.00217 nM | 0.00434 nM |
| B12 | 2.12 nM | 4.3 Log10(MFI) | ~2 nM | 38.7 nM | 28500 Counts/sec | – | – | – | – | – | – |
